The target in test [1] is T1, human Tim-3 expressed on the cell surface (human, UniProt Q8TDQ0 22-301).
T1 construct: also called hTim-3; Human Tim-3 (CHO)
As to the kind of experiment: flow cytometry, CHO-human Tim-3 cells.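 Note: antibodies bound on ice for 60 min, detected by PE anti-human IgG Fc secondary, mean fluorescence intensity fit to one-site specific binding with Hill slope, parental CHO cells as nonspecific control.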

Test [2] has as its target T2, cynomolgus Tim-3 expressed on CHO cells (cynomolgus monkey).
T2 construct: also called cTim-3; Cyno Tim-3 (CHO)
T2 chain: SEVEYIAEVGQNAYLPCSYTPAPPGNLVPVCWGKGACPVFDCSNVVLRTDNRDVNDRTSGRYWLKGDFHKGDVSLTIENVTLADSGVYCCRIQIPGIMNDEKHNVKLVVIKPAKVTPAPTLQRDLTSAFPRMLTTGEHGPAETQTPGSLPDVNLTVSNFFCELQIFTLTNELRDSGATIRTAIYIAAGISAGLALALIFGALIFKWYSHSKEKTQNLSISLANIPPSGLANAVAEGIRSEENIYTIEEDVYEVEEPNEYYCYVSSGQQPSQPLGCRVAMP
As to the kind of experiment: flow cytometry, CHO-cyno Tim-3 cells.

Test [3] has as its target T3, recombinant human Tim-3-Fc (R&D Systems, 2365-TM) (human, UniProt Q8TDQ0 22-202, biotinylated in the Galectin-9 competition ELISA (sites not given)).
T3 construct: Bought protein; also called huTim-3-Fc; biotinylated Tim-3-Fc; not shown: Fc of the bought fusion protein
As to the kind of experiment: SPR Biacore, human Tim-3 Fc; KD estimated.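 Note: antibodies captured on an anti-FLAG sensor surface, Tim-3-Fc flowed over as analyte at 25 °C in HBS-EP+ buffer, rates fit with a 1:1 Langmuir model.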

For test [4], the target named is T1, human Tim-3 expressed on the cell …. As to the kind of experiment: flow cytometry, activated human CD4+ T cells. (In general: In flow cytometry, cells or beads pass a laser one at a time.)
The target of test [5] is T3, recombinant human Tim-3-Fc (R&D …). As to the kind of experiment: SPR Biacore, human Tim-3 Fc. (In general: SPR reads the build-up and loss of mass on a sensor chip optically.)

Where a chain is given by its changes, count along the chain named.

B1: h22E11-VK3-11 × h22E11-VH3-23 (antibody, V domains shown)
VH: EVQLLESGGGLVQPGGSLRLSCAVSGFSLTSYGVHWVRQAPGKGLEWLVVIWSDGSTTYNDSVKGRFTISKDNSKNTVYLQMNSLRAEDTAVYYCARQGGYRYDDAMDYWGQGTLVTVSS
VL: EIVLTQSPATLSLSPGERATLSCKASQSVDYDGNSYVNWYQQKPGQAPRLLIYAASNLESGIPARFSGSGSGTDFTLTISSLEPEDFAVYYCQQSNEDPYTFGQGTKVEIK
notes: Humanized m22E11
A word on the Kd: it is the constant that tells how readily two partners part at equilibrium. One may read the koff as the rate constant with which the complex falls apart. For the molecule B1, the Kd was 0.7 nM in test [1], 6.9 nM in test [2], 5.3 nM in test [3] and 0.9 nM in test [4]. For the same molecule, the koff in test [5] is 0.000934 s⁻¹.

B2: h22E11-VK3-11 × h22E11-VH5-51 (antibody, V domains shown)
VH: EVQLVQSGAEVKKPGESLKISCKVSGFSLTSYGVHWVRQMPGKGLEWLVVIWSDGSTTYNPSFQGQVTISKDKSISTVYLQWSSLKASDTAMYYCARQGGYRYDDAMDYWGQGTLVTVSS
VL: B1 VL
notes: Humanized m22E11
Turning to B2, the dissociation constant (Kd) in test [1] was 0.8 nM; in test [2] it was 2.7 nM; in test [3], 4.3 nM; in test [4], 0.6 nM. In addition, the koff in test [5] was determined as 0.000875 s⁻¹.

B3: h22E11-VK2-28 × h22E11-VH3-23 (antibody, V domains shown)
VH: B1 VH
VL: DIVLTQSPLSLPVTPGEPASISCKASQSVDYDGNSYVNWYLQKPGQSPQLLIYAASNLESGVPDRFSGSGSGTDFTLKISRVEAEDVGVYYCQQSNEDPYTFGQGTKVEIK
notes: Humanized m22E11
Take B3: the Kd is 0.8 nM in test [1], 5.4 nM in test [2], 5.9 nM in test [3] and 1.7 nM in test [4]. Further, the koff in test [5] was determined as 0.000911 s⁻¹.

B4: h22E11-5-IgG-LC × h22E11-VH5-51 (antibody, V domains shown)
VH: B2 VH
VL: B1 VL with A9G, N38A, A64D, S81R
notes: Humanized m22E11
For B4, the Kd in test [3] was 5 nM. Also, the koff in test [5] was 0.0011 s⁻¹.

B5: h22E11-5-IgG-LC × h22E11-VH3-23 (antibody, V domains shown)
VH: B1 VH
VL: B1 VL with A9G, N38A, A64D, S81R
notes: Humanized m22E11
B5: the dissociation constant (Kd) in test [1] was 0.8 nM; in test [2], 13.2 nM; in test [3], 5.3 nM; in test [4] it was 1.2 nM. Further, the koff in test [5] came to 0.000895 s⁻¹.

B6: h22E11-VK1-39 × h22E11-VH1-69 (antibody, V domains shown)
VH: QVQLVQSGAEVKKPGSSVKVSCKVSGFSLTSYGVHWVRQAPGQGLEWLVVIWSDGSTTYNQKFQGRVTITKDESTSTVYMELSSLRSEDTAVYYCARQGGYRYDDAMDYWGQGTLVTVSS
VL: DIQLTQSPSSLSASVGDRVTITCKASQSVDYDGNSYVNWYQQKPGKAPKLLIYAASNLESGVPSRFSGSGSGTDFTLTISSLQPEDFATYYCQQSNEDPYTFGQGTKVEIK
notes: Humanized m22E11
In the case of B6, the Kd in test [1] was 0.6 nM; in test [2] it was 1.7 nM; in test [3], 6 nM; in test [4], 2.6 nM. Moreover, in test [5], the koff worked out at 0.00094 s⁻¹.

B7: h22E11-VK3-11 × h22E11-VH1-69 (antibody, V domains shown)
VH: B6 VH
VL: B1 VL
notes: Humanized m22E11
Turning to B7, the Kd in test [1] is 1 nM; in test [2], 2.8 nM; in test [3] it was 4.9 nM; in test [4], 4 nM. Besides, the koff in test [5] was determined as 0.000867 s⁻¹.

B8: h22E11-VK1-39 × h22E11-VH4-30-4 (antibody, V domains shown)
VH: QVQLQESGPGLVKPSQTLSLTCTVSGFSLTSYGVHWIRQPPGKGLEWLVVIWSDGSTTYNPSLKSRVTISKDTSKNQVSLKLSSVTAADTAVYYCARQGGYRYDDAMDYWGQGTLVTVSS
VL: B6 VL
notes: Humanized m22E11
For B8, the Kd was 0.7 nM in test [1], 5.5 nM in test [2] and 9.1 nM in test [3]. Also, in test [5], the koff was determined as 0.00126 s⁻¹.

B9: h22E11-VK2-28 × h22E11-VH1-69 (antibody, V domains shown)
VH: B6 VH
VL: B3 VL
notes: Humanized m22E11
For the molecule B9, the Kd in test [1] was 0.7 nM; in test [2], 1.7 nM; in test [3], 5.4 nM; in test [4], 2.3 nM. In addition, the koff in test [5] was determined as 0.000863 s⁻¹.

B10: h22E11-VK1-39 × h22E11-VH5-51 (antibody, V domains shown)
VH: B2 VH
VL: B6 VL
notes: Humanized m22E11
For B10, the Kd in test [1] was 0.4 nM; in test [2], 2.1 nM; in test [3], 5.3 nM; in test [4], 0.9 nM. Further, the koff in test [5] worked out at 0.000947 s⁻¹.

B11: h22E11-VK1-39 × h22E11-VH3-23 (antibody, V domains shown)
VH: B1 VH
VL: B6 VL
notes: Humanized m22E11
With B11, the Kd is 0.5 nM in test [1], 4.5 nM in test [2], 5.6 nM in test [3] and 1.1 nM in test [4]. Besides, the koff in test [5] came to 0.00094 s⁻¹.

B12: h22E11-VK1-39 × h22E11-5-IgG-HC (antibody, V domains shown)
VH: B1 VH with L5V, D61S, S62A, V63L, G65S, S74A, T77S
VL: B6 VL
notes: Humanized m22E11
With B12, the Kd in test [1] is 0.6 nM; in test [2], 4.7 nM; in test [3], 6.2 nM; in test [4], 2.4 nM. Besides, the koff in test [5] is 0.00102 s⁻¹.

B13: h22E11-5-IgG-LC × h22E11-VH1-69 (antibody, V domains shown)
VH: B6 VH
VL: B1 VL with A9G, N38A, A64D, S81R
notes: Humanized m22E11
With B13, the equilibrium dissociation constant (Kd) in test [1] is 0.9 nM; in test [2], 3 nM; in test [3], 4.9 nM; in test [4] it was 1.6 nM. Further, in test [5], the koff worked out at 0.000991 s⁻¹.

B14: h22E11-VK4-1 × h22E11-VH4-30-4 (antibody, V domains shown)
VH: B8 VH
VL: DIVLTQSPDSLAVSLGERATINCKASQSVDYDGNSYVNWYQQKPGQPPKLLIYAASNLESGVPDRFSGSGSGTDFTLTISSLQAEDVAVYYCQQSNEDPYTFGQGTKVEIK
notes: Humanized m22E11
Regarding B14, the Kd in test [1] is 1.1 nM; in test [2], 5 nM; in test [3] it was 8.1 nM; in test [4], 5.7 nM. The koff in test [5] was 0.00119 s⁻¹.

B15: h22E11-VK3-11 × h22E11-VH4-30-4 (antibody, V domains shown)
VH: B8 VH
VL: B1 VL
notes: Humanized m22E11
For the molecule B15, the Kd in test [1] was 1 nM; in test [2], 4.5 nM; in test [3], 7.2 nM; in test [4], 7.1 nM. Also, in test [5], the koff was 0.00107 s⁻¹.

B16: h22E11-VK4-1 × h22E11-VH5-51 (antibody, V domains shown)
VH: B2 VH
VL: B14 VL
notes: Humanized m22E11
As for B16, the Kd in test [1] is 0.8 nM; in test [2], 1.9 nM; in test [3], 4.8 nM; in test [4], 0.6 nM. The koff in test [5] is 0.000881 s⁻¹.

B17: h22E11-5-IgG-LC × h22E11-VH4-30-4 (antibody, V domains shown)
VH: B8 VH
VL: B1 VL with A9G, N38A, A64D, S81R
notes: Humanized m22E11
Consider B17, for which the Kd is 3.7 nM in test [1] and 7.6 nM in test [3]. Also, the off-rate (koff) in test [5] came to 0.00117 s⁻¹.

B18: h22E11-VK4-1 × h22E11-5-IgG-HC (antibody, V domains shown)
VH: B1 VH with L5V, D61S, S62A, V63L, G65S, S74A, T77S
VL: B14 VL
notes: Humanized m22E11
B18: the Kd in test [1] was 0.8 nM; in test [2], 5.3 nM; in test [3] it was 5.7 nM; in test [4], 1.4 nM. Also, the koff in test [5] is 0.000973 s⁻¹.

Source of the values: US20200190192A1 (SUTRO BIOPHARMA, published 2020).
